Data from patent publication US20100028995A1, “Tetranectin Trimerizing Polypeptides” (Anaphore, Inc., priority 2004, published 2010).

Assay: Differential scanning calorimetry (VP-DSC) of tetranectin trimerisation domain and deletion peptides
Assay type: physicochemical
Settings: for TM if N is free: in °C
Description: A characterization of the thermal stability of the trimerisation domain of tetranectin was obtained using DSC, both of the full length trimerisation domain and of deletion mutants.
The DSC scans were conducted on a VP-DSC from MicroCal LLC (Northampton, Mass.). For most of the scans a PBS buffer containing 110 mM NaCl and 40 mM NaPO4 was used. The pH was 7.4. The scans were made from 10 to 110° C. under approximately 25 psi at a scan rate of 1° C./min and a pre-scan period of 20 minutes. At least two scans with buffer in both chambers were conducted before removal of buffer from both chambers and the filling with new buffer and protein/peptide solution to the reference and sample chamber respectively.
Peptides were synthesized by an outside vendor and were based on the tetranectin sequence, however, minor modifications were applied. In particular, the residue corresponding to Cys 50 was changed to a Serine. Also, residue number 28 is in native TN polymorphic, being either a Ser or an Ala. In the following experiments, Ala was selected. In addition, the N and C-terminal of the peptides were modified to remove charge and mimic natural peptides, increase stability toward digestion by aminopeptidases and block against synthetase activity. In the N-terminal deletion class peptides the N-terminal is acetylated and the C-terminal is prolonged with a β-Ala and a Cys. For the C-terminal deletion class peptides the modification are amidation of the C-terminal and all the sequences start with Cys-βAla.
Since these peptides were lyophilized from a TFA solution the pH of the redissolved peptides had to be adjusted. This was done using our micro-pH meter from Unisense. The pH was adjusted to the same mV value as found for the buffer by adding small portions of 0.2 M NaOH to the solution immediately followed by mixing. In order to prevent disulphide-bridge dimerisation and possible stabilization of the multimeric structures all scanning of peptides were conducted in 5 mM β-mercaptoethanol. Prior to scanning and addition of β-mercaptoethanol the sample and buffer were extensively degassed under vacuum while stirring.
Trip-A (SEQ ID NO:42) was scanned at concentrations ranging from 2 mM to 0.125 mM, by lowering the concentration by a factor 2. This corresponds to protein concentrations from 12.7 mg-ml to 0.80 mg/mL. […] The difference between the two-state model and the non-2-state model can be stated as that the non-2-state model contains a contribution to the unfolding energy from co-operative stabilization of subunits. This leads to a sharpening of the peak. The parameter introduced relative to the 2-state model is called the ΔHv, or the van't Hoff enthalpy. The ratio between ΔHv and ΔH can be taken as a measurement of the number of subunits in one unfolding unit. The result is shown on FIG. 13 and Table 6. The data is from one representative scan and fitted to the non-2-state model.
The “dissociation with dCp” model describes a system where unfolding and dissociation of a multisubunit protein is simultaneous. The data is from one representative scan and fitted to the “dissociation with dCp” model. The ΔHm and dCp value is per trimer.

[1] = Trip-A 0.125 mM, dissociation with dCp model
[2] = Trip-A 0.125 mM, dissociation with dCp model, per trimer
[3] = Trip-A 0.125 mM, non-2-state model, PBS pH 7.4
[4] = Trip-A 0.25 mM, dissociation with dCp model
[5] = Trip-A 0.25 mM, dissociation with dCp model, per trimer
[6] = Trip-A 0.25 mM, non-2-state model, PBS pH 7.4
[7] = Trip-A 0.5 mM, Down, first scan
[8] = Trip-A 0.5 mM, Down, first scan, per trimer
[9] = Trip-A 0.5 mM, Down, sec. scan, per trimer
[10] = Trip-A 0.5 mM, Up, first scan, per trimer
[11] = Trip-A 0.5 mM, Up, second scan, per trimer
[12] = Trip-A 0.5 mM, dissociation with dCp model
[13] = Trip-A 0.5 mM, dissociation with dCp model, per trimer
[14] = Trip-A 0.5 mM, non-2-state model, PBS pH 7.4
[15] = Trip-A 1.0 mM, dissociation with dCp model
[16] = Trip-A 1.0 mM, dissociation with dCp model, per trimer
[17] = Trip-A 1.0 mM, non-2-state model, PBS pH 7.4
[18] = Trip-A 2.0 mM, dissociation with dCp model
[19] = Trip-A 2.0 mM, dissociation with dCp model, per trimer
[20] = Trip-A 2.0 mM, non-2-state model, PBS pH 7.4

## Trip-A: full length trimerisation domain of tetranectin (SEQ ID NO:42) (SPGTEPPTQKPKKIVNAKKDVVNTKMFEELKARLDTLSQEVALLKEQQALQTVSLKGS)
Table 10, N-terminal deletion peptides, Conc per construct
  Rev. (%): 97.6%
Table 10, N-terminal deletion peptides, dissociation with dCp model, Conc per construct
  ΔHm (kJ/mol(trimer)): 319.2 ± 0.4 kJ/mol(trimer)
Table 10, N-terminal deletion peptides, dissociation with dCp model, PBS pH 7.4, Conc per construct 0.32-0.63 (column Conc)
  TM (° C.): 84.7 ± 0.1 °C
Table 10, N-terminal deletion peptides, per trimer, Conc per construct
  dCp (kJ/molK): 0.7 ± 0.1 kJ/molK
Table 11, C-terminal deletion peptides, Conc per construct
  Rev. (%): 97.6%
Table 11, C-terminal deletion peptides, dissociation with dCp model, Conc per construct
  ΔHm (kJ/mol(trimer)): 319.2 ± 0.4 kJ/mol(trimer)
Table 11, C-terminal deletion peptides, dissociation with dCp model, PBS pH 7.4, Conc per construct 0.4-0.63 (column Conc)
  TM (° C.): 84.7 ± 0.1 °C
Table 11, C-terminal deletion peptides, per trimer, Conc per construct
  dCp (kJ/molK): 0.7 ± 0.1 kJ/molK
[1]
  Rev. (%): 98.9%
  TM (° C.) (N = 3): 82.2 ± 0.3 °C
  N (free): 1.88
  TM if N is free: 78.9 ± 0.3
[2]
  dCp (kJ/molK): 2.4 ± 0.2 kJ/molK
  ΔHm: 66.2 ± 0.454 kcal/mol
[3]
  Reversibility (%): 94.2%
  TM (° C.): 73.1 ± 0.03 °C
  ΔH: 15.2 ± 0.048 kcal/mol
  ΔHv: 42.52 ± 0.14 kcal/mol
  ΔHv/ΔH: 2.8
[4]
  Rev. (%): 98.2%
  TM (° C.) (N = 3): 81.4 ± 0.1 °C
  N (free): 2.48
  TM if N is free: 81.2 ± 0.1
[5]
  dCp (kJ/molK): 3.3 ± 0.1 kJ/molK
  ΔHm: 68 ± 0.17 kcal/mol
[6]
  Reversibility (%): 95.6%
  TM (° C.): 75.9 ± 0.1 °C
  ΔH: 12.7 ± 0.096 kcal/mol
  ΔHv: 46.03 ± 0.406 kcal/mol
  ΔHv/ΔH: 3.6
[7]
  Rev. (%): 68.9%
  N (free): 0.66
  TM if N is free: 81.4 ± 0.4
Trip-A 0.5 mM, Down, first scan (refolding), dissociation with dCp model
  TM (° C.): 79.8 ± 0.1 °C
[8]
  dCp (kJ/molK): 3.5 ± 0.1 kJ/molK
  ΔHm: -59.51 ± 0.311 kcal/mol
Trip-A 0.5 mM, Down, sec. scan
  Rev. (%): 85.6%
  N (free): 1.45
  TM if N is free: 85.6 ± 0.3
Trip-A 0.5 mM, Down, sec. scan (refolding), dissociation with dCp model
  TM (° C.): 80.2 ± 0.2 °C
[9]
  dCp (kJ/molK): 6.9 ± 0.1 kJ/molK
  ΔHm: -40.99 ± 0.526 kcal/mol
Trip-A 0.5 mM, Up, first scan
  Rev. (%): 94.2%
  N (free): 2.13
  TM if N is free: 84.0 ± 0.1
Trip-A 0.5 mM, Up, first scan, dissociation with dCp model
  TM (° C.): 82.3 ± 0.1 °C
[10]
  dCp (kJ/molK): 1.7 ± 0.1 kJ/molK
  ΔHm: 68.91 ± 0.14 kcal/mol
Trip-A 0.5 mM, Up, second scan
  Rev. (%): 94.0%
  N (free): 3.7
  TM if N is free: 80.3 ± 0.1
Trip-A 0.5 mM, Up, second scan, dissociation with dCp model
  TM (° C.): 81.7 ± 0.1 °C
[11]
  dCp (kJ/molK): 2.0 ± 0.1 kJ/molK
  ΔHm: 64.89 ± 0.072 kcal/mol
[12]
  Rev. (%): 97.6%
  TM (° C.) (N = 3): 84.7 ± 0.1 °C
  N (free): 3.93
  TM if N is free: 83.5 ± 0.1
[13]
  dCp (kJ/molK): 0.67 ± 0.01 kJ/molK
  ΔHm: 76.29 ± 0.096 kcal/mol
[14]
  Reversibility (%): 94.1%
  TM (° C.): 81.4 ± 0.1 °C
  ΔH: 11.6 ± 0.096 kcal/mol
  ΔHv: 55.59 ± 0.574 kcal/mol
  ΔHv/ΔH: 4.8
[15]
  Rev. (%): 97.6%
  TM (° C.) (N = 3): 83.2 ± 0.1 °C
  N (free): 2.21
  TM if N is free: 86.0 ± 0.1
[16]
  dCp (kJ/molK): 0.58 ± 0.02 kJ/molK
  ΔHm: 72.49 ± 0.14 kcal/mol
[17]
  Reversibility (%): 97.7%
  TM (° C.): 86.5 ± 0.1 °C
  ΔH: 8.82 ± 0.14 kcal/mol
  ΔHv: 65.06 ± 1.29 kcal/mol
  ΔHv/ΔH: 7.4
[18]
  Rev. (%): 95.6%
  TM (° C.) (N = 3): 85.2 ± 0.4 °C
  N (free): 5.67
  TM if N is free: 77.0 ± 0.5
[19]
  dCp (kJ/molK): −7.1 ± 0.5 kJ/molK
  ΔHm: 91.9 ± 0.813 kcal/mol
[20]
  Reversibility (%): 105 (!) %
  TM (° C.): 90.4 ± 0.1 °C
  ΔH: 7.74 ± 0.072 kcal/mol
  ΔHv: 66.9 ± 0.837 kcal/mol
  ΔHv/ΔH: 8.6
Trip-A, pH 3.0
  Rev (%): 93.1%
Trip-A, pH 3.0 (100 mM NaCl 25 mM NaPO4)
  TM (° C.): 84.6 ± 0.2 °C
Trip-A, pH 3.0, per trimer
  dCp (kJ/molK): 11.9 ± 0.3 kJ/molK
  ΔHm: 71.2 ± 0.693 kcal/mol
Trip-A, pH 4.0
  Rev (%): 88.1%
Trip-A, pH 4.0 (100 mM NaCl 25 mM NaAcetat)
  TM (° C.): 82.6 ± 0.1 °C
Trip-A, pH 4.0, per trimer
  dCp (kJ/molK): 0.12 ± 0.07 kJ/molK
  ΔHm: 70.29 ± 0.22 kcal/mol
Trip-A, pH 7.4
  Rev (%): 97.6%
  TM (° C.): 84.7 ± 0.1 °C
Trip-A, pH 7.4, per trimer
  dCp (kJ/molK): 0.67 ± 0.05 kJ/molK
  ΔHm: 76.29 ± 0.096 kcal/mol
Across concentrations 0.125-2 mM, dissociation with dCp model
  Tm values: 81-85 °C
Across concentrations, dissociation with dCp model
  ΔHm: approximately 300 kJ/mole
Scans at pH 3.0, 4.0 and 7.4
  stability to pH: exhibits stability to pH
